Bridge positions count the residues as written; N and C are the ends. Square brackets hold non-standard residues; d marks the D form. Orn = NCCC[C@H](N)C(=O)O
Key:
STZ (diabetic) rats = test: In vivo assay in STZ (diabetic) rats, subcutaneous injection; design: species or system rat; details: for effect on blood glucose levels: FIG. 17, STZ rats, 12 nmol/kg per rat
Source text: FIG. 17 presents an in vivo assay done in STZ rats.
FIG. 18 presents another in vivo assay done in STZ rats. The four fusion proteins used in FIG. 17 were subcutaneously injected at doses of 23.8 nmol/kg per rat. […] In this study both fusion proteins carrying an active SCI analogue had similar activities.

[1] = Thioflavin T (ThT) fibrillation assay; assay type: physicochemical; details: FIG. 15; month-long assay, 100 μM, pH 7.4, 37° C.
Procedure: Fibrillation Assays. We employed an automated plate-based fluorescent device to monitor the time course of peptide fibrillation using a Thioflavin T (ThT) assay. This assay is based on the THT fluorescence emission at 480 nm upon binding to mature fibrils when excited at 440 nm. The assay was performed by preparing stock solutions of the fusion protein and the individual peptides in either NaCl 0.9% (pH 2.5) or PBS (pH 7.4). Our experience has identified 100-μM final concentration as optimal fibrillation conditions for glucagon analogues. Stock solutions were diluted with NaCl 0.9% or 1X PBS buffer, pH adjusted (with 1N HCl or 1N NaOH) mixed with Thioflavin-T (THT) at a final concentration of 16 μM, centrifuged, and 250 μl of the sample were placed on a 96-well plate with 4-10 technical replicates. Measurements were done every 15 minutes and the sample agitated at 1096 cpm at 37° C. on a Synergy H1 microplate reader (BioTek, Winooski, VT). The lag time, defined as the time-point at which fibrillation starts its exponential phase, was considered as the point at which fluorescence was 3 times the background signal.

Molecule	effect on blood glucose levels (STZ (diabetic) rats)	effect on blood-glucose concentrations (STZ (diabetic) rats; FIG. 18, STZ rats, 23.8 nmol/kg per rat)	formation of amyloid-like fibrils [1]	activity at 23.8 nmol/kg relative to the 12-nmol/kg rat doses (STZ (diabetic) rats; FIG. 18 vs FIG. 17, STZ rats)
HSQGTFTSDYSOKLDSEOAQDFVQWLMNTEEKFVNQHLCGSHLVEALYLVCGEOGFFYTPETEEGPOOGILEQCCQSICSLEQLENYCN (protein, lactam 13-17; ends not checked, fusion protein made by trypsin-mediated ligation) HSQGTFTSDYS[Orn]KLDSE[Orn]AQDFVQWLMNTEEKFVNQHLCGSHLVEALYLVCGE[Orn]GFFYTPETEEGP[Orn][Orn]GILEQCCQSICSLEQLENYCN	slight rise in blood glucose levels	didn't cause an increase in blood-glucose concentrations		
HSQGTFTSDYSOKLDSEOAQDFVQWLMNTEEKFVNQHLCGSHLVEALYLVCGEOGFFYTPETEEGPOOGIVEQCCQSICSLEQLENYCN (protein, K13-E17 lactam; ornithine residues; glucagon/insulin fusion peptide analog; (12)..(12) Xaa at position 12 is ornithine; (18)..(18) Xaa at position 18 is ornithine; (54)..(54) Xaa at position 54 is ornithine; (67)..(67) Xaa at position 67 is ornithine; (68)..(68) Xaa at position 68 is ornithine, fusion protein made by trypsin-mediated ligation) HSQGTFTSDYSXKLDSEXAQDFVQWLMNTEEKFVNQHLCGSHLVEALYLVCGEXGFFYTPETEEGPXXGIVEQCCQSICSLEQLENYCN	higher activity than the corresponding analogue containing an active SCI and inactive glucagon		did not form amyloid-like fibrils within the duration of the experiment	stayed in a similar range

— patent US20240116999A1, “CONFORMATIONALLY CONSTRAINED GLUCAGON ANALOGUES AND THEIR USE IN GLUCAGON-SINGLE CHAIN INSULIN FUSION PROTEINS” (THE TRUSTEES OF INDIANA UNIVERSITY, priority 2021, published 2024)
